In the Human Domainome abundance scans (Beltran et al. 2025):
± gives the uncertainty stated by the source.

B1: Gamma-crystallin S, residues 96 to 176; numbered along this chain, P22914 (parent)
chain: IQIFEKGDFSGQMYETTEDCPSIMEQFHMREIHSCKVLEGVWIFYELPNYRGRQYLLDKKEYRKPIDWGAASPAVQSFRRI

Variants of: B1
Assay: abundance fitness (aPCA) (normalised: wild type 0, dead -1); higher = more abundant; growth selection in yeast, the domain comes from the species named
Settings: Homo sapiens
With W42H the abundance fitness was -0.461 ± 0.14. Work on W42Q yielded an abundance fitness of -0.906 ± 0.24. In the case of W42F, the abundance fitness is reported as -0.051 ± 0.11. Variant W42M has an abundance fitness of -0.231 ± 0.096. In the case of C35K, the abundance fitness is reported as -1.01 ± 0.21. With C35P the abundance fitness was -0.788 ± 0.12. C35M gave an abundance fitness of 0.111 ± 0.046. Variant C35R has an abundance fitness of -0.987 ± 0.077. With C35N the abundance fitness was -0.529 ± 0.12. Variant R63Y has an abundance fitness of -0.158 ± 0.34. For R63G, the abundance fitness was 0.092 ± 0.14. Work on R63T yielded an abundance fitness of -0.102 ± 0.42. With R63K the abundance fitness was -0.093 ± 0.21. With A71Q the abundance fitness was -0.187 ± 0.3. Work on A71M yielded an abundance fitness of 0.022 ± 0.13. A71D showed an abundance fitness of -0.308 ± 0.49. In the case of A71P, the abundance fitness is reported as 0.128 ± 0.43. Variant A71E has an abundance fitness of 0.028 ± 0.21. With A71W the abundance fitness was 0.018 ± 0.092. A71S gave an abundance fitness of -0.125 ± 0.12. I43V gave an abundance fitness of -0.013 ± 0.049. For I43M, the abundance fitness was 0.074 ± 0.12. Variant V41A has an abundance fitness of 0.063 ± 0.059. Work on V41D yielded an abundance fitness of -0.01 ± 0.17. With V41W the abundance fitness was -0.132 ± 0.058. In the case of V41G, the abundance fitness is reported as 0.105 ± 0.041. Variant V41M has an abundance fitness of 0.041 ± 0.095. In the case of V41Y, the abundance fitness is reported as -0.162 ± 0.12. Variant V41Q has an abundance fitness of 0.055 ± 0.081. For V41F, the abundance fitness was -0.001 ± 0.092. Variant N49F has an abundance fitness of -0.009 ± 0.052. Variant N49W has an abundance fitness of 0.004 ± 0.033. N49K showed an abundance fitness of -0.04 ± 0.045. In the case of N49R, the abundance fitness is reported as -0.07 ± 0.027. D58R showed an abundance fitness of 0.04 ± 0.11. In the case of D58T, the abundance fitness is reported as 0.008 ± 0.2. With D58C the abundance fitness was 0.054 ± 0.29. K59T gave an abundance fitness of 0.089 ± 0.38. K59I gave an abundance fitness of 0.026 ± 0.2. For K59Y, the abundance fitness was -0.077 ± 0.19. K59F gave an abundance fitness of -0.107 ± 0.27. K59H gave an abundance fitness of 0.323 ± 0.39. For K59V, the abundance fitness was 0.119 ± 0.15. For K59G, the abundance fitness was -0.133 ± 0.16. For E39S, the abundance fitness was 0.035 ± 0.056. E39M gave an abundance fitness of -0.014 ± 0.057. For E39Q, the abundance fitness was -0.03 ± 0.081. In the case of E39H, the abundance fitness is reported as -0.1 ± 0.12. With Y45Q the abundance fitness was -0.888 ± 0.17. Variant Y45R has an abundance fitness of -0.841 ± 0.087. H28D showed an abundance fitness of 0.027 ± 0.099. Variant H28P has an abundance fitness of 0.137 ± 0.056. Work on H28G yielded an abundance fitness of 0.048 ± 0.047. Variant H28Q has an abundance fitness of 0.037 ± 0.13. For H28R, the abundance fitness was -0.047 ± 0.05. For H28Y, the abundance fitness was 0.035 ± 0.11. H28T gave an abundance fitness of 0.036 ± 0.08. Variant E61W has an abundance fitness of 0.086 ± 0.17. With E61Q the abundance fitness was -0.05 ± 0.21. E61S gave an abundance fitness of -0.358 ± 0.22. L38M gave an abundance fitness of -0.046 ± 0.095. With L38I the abundance fitness was -0.15 ± 0.11. In the case of P73W, the abundance fitness is reported as 0.089 ± 0.13. P73G gave an abundance fitness of -0.309 ± 0.16. With F4H the abundance fitness was -0.017 ± 0.095. F4Q gave an abundance fitness of -0.868 ± 0.14. For F4M, the abundance fitness was -0.045 ± 0.064. A74L gave an abundance fitness of 0.113 ± 0.12. For A74V, the abundance fitness was 0.086 ± 0.2. In the case of A74C, the abundance fitness is reported as 0.203 ± 0.16. Work on A74S yielded an abundance fitness of -0.111 ± 0.17. Variant A74G has an abundance fitness of 0.046 ± 0.12. A74E showed an abundance fitness of -0.139 ± 0.29. Work on A74R yielded an abundance fitness of 0.118 ± 0.24. In the case of L47A, the abundance fitness is reported as -0.047 ± 0.068. With L47P the abundance fitness was -0.909 ± 0.26. Work on L47M yielded an abundance fitness of 0.07 ± 0.094. L47G showed an abundance fitness of -0.051 ± 0.037. L47F showed an abundance fitness of 0.046 ± 0.083. For I23W, the abundance fitness was 0.014 ± 0.11. For I23R, the abundance fitness was -0.28 ± 0.077. Work on I23L yielded an abundance fitness of -0.152 ± 0.089. P48R gave an abundance fitness of -0.067 ± 0.045. D67P gave an abundance fitness of -0.154 ± 0.12. Work on D67G yielded an abundance fitness of -0.098 ± 0.19. D67E showed an abundance fitness of 0.069 ± 0.26. Work on D67K yielded an abundance fitness of -0.127 ± 0.22. In the case of D67W, the abundance fitness is reported as 0.053 ± 0.18. D67Q gave an abundance fitness of -0.034 ± 0.28. In the case of G69M, the abundance fitness is reported as 0.052 ± 0.23. Work on G69S yielded an abundance fitness of 0.071 ± 0.1. Variant G69D has an abundance fitness of -0.155 ± 0.13. G69I showed an abundance fitness of 0.09 ± 0.22. K36C showed an abundance fitness of -0.078 ± 0.064. For K36I, the abundance fitness was -0.045 ± 0.11. For K36M, the abundance fitness was 0.024 ± 0.075. Variant K36W has an abundance fitness of 0.15 ± 0.052. K36E showed an abundance fitness of -0.021 ± 0.055. For P65N, the abundance fitness was -0.284 ± 0.34. With P65C the abundance fitness was -0.184 ± 0.2. For P65S, the abundance fitness was -0.008 ± 0.2. For P65Q, the abundance fitness was 0.045 ± 0.35. P65W gave an abundance fitness of -0.024 ± 0.16. L56F showed an abundance fitness of 0.04 ± 0.26. L56D showed an abundance fitness of 0.309 ± 0.29. L56T gave an abundance fitness of -0.04 ± 0.42. Variant F9N has an abundance fitness of 0.068 ± 0.082. Variant F9W has an abundance fitness of -0.018 ± 0.053. F9T gave an abundance fitness of -0.051 ± 0.057. Work on F9K yielded an abundance fitness of -0.095 ± 0.072. With D19M the abundance fitness was -0.097 ± 0.091. D19R showed an abundance fitness of -0.015 ± 0.068. D19W showed an abundance fitness of -0.024 ± 0.072. For D19N, the abundance fitness was -0.193 ± 0.17. With D19L the abundance fitness was -0.124 ± 0.076. With R51T the abundance fitness was 0.1 ± 0.088. With R51H the abundance fitness was 0.013 ± 0.1. Work on R51G yielded an abundance fitness of 0.062 ± 0.035. In the case of E15F, the abundance fitness is reported as -0.05 ± 0.099. E15K showed an abundance fitness of 0.147 ± 0.12. Variant E15A has an abundance fitness of -0.011 ± 0.062. Variant E15I has an abundance fitness of -0.183 ± 0.15. E15C showed an abundance fitness of -0.137 ± 0.098. With R53Q the abundance fitness was 0.073 ± 0.065. For R53T, the abundance fitness was -0.018 ± 0.073. Work on I81Q yielded an abundance fitness of 0.045 ± 0.21. In the case of I81C, the abundance fitness is reported as 0.106 ± 0.16. For I81M, the abundance fitness was -0.31 ± 0.23. Variant I81L has an abundance fitness of -0.065 ± 0.29. G11Q showed an abundance fitness of -0.003 ± 0.044. In the case of G11K, the abundance fitness is reported as 0.105 ± 0.081. Variant G11F has an abundance fitness of -0.294 ± 0.069. For G11D, the abundance fitness was -0.009 ± 0.088. Work on M13T yielded an abundance fitness of 0.027 ± 0.064. M13G showed an abundance fitness of -0.041 ± 0.04. In the case of M13W, the abundance fitness is reported as -0.048 ± 0.05. Variant M13H has an abundance fitness of 0.005 ± 0.099. Work on M13N yielded an abundance fitness of -0.083 ± 0.11. M13Q gave an abundance fitness of 0.019 ± 0.061. Work on S34P yielded an abundance fitness of -1.08 ± 0.23. With S34Y the abundance fitness was -0.646 ± 0.17. In the case of S34F, the abundance fitness is reported as -1.06 ± 0.2. Variant S34G has an abundance fitness of 0.06 ± 0.035. Variant Q76E has an abundance fitness of -0.145 ± 0.29. For S22A, the abundance fitness was 0.023 ± 0.054. With S22W the abundance fitness was 0.082 ± 0.1. In the case of S22L, the abundance fitness is reported as -0.022 ± 0.066. In the case of S22G, the abundance fitness is reported as -0.015 ± 0.037. S22M showed an abundance fitness of -0.094 ± 0.078. S22H gave an abundance fitness of -0.01 ± 0.077. Work on S22C yielded an abundance fitness of 0.02 ± 0.12. In the case of F78Y, the abundance fitness is reported as -0.023 ± 0.24. Work on F78A yielded an abundance fitness of -0.136 ± 0.17. With F78I the abundance fitness was -0.228 ± 0.33. L57S gave an abundance fitness of 0.171 ± 0.15. Work on L57F yielded an abundance fitness of -0.311 ± 0.26. L57T showed an abundance fitness of -0.078 ± 0.16. Work on L57K yielded an abundance fitness of -0.414 ± 0.45. With L57C the abundance fitness was -0.273 ± 0.33. With L57G the abundance fitness was 0.026 ± 0.12. Work on Q54S yielded an abundance fitness of 0.017 ± 0.059. With Q54F the abundance fitness was -0.114 ± 0.087. For Q54E, the abundance fitness was -0.067 ± 0.092. In the case of Q54W, the abundance fitness is reported as -0.279 ± 0.064. Q54H gave an abundance fitness of 0.035 ± 0.13. For Q54N, the abundance fitness was 0.089 ± 0.089. For Q54G, the abundance fitness was -0.048 ± 0.053.
